Measurements taken from the supplement of paper PMC10567573.

B1: RAB40A (parent)
chain: NWLGRPSKVLSLQDLCCRTIVSCT
B2: CLCN6 (parent)
chain: MAGCRGSLCCCCRWCCCCGERETR

Variants of: B1
Test: protein stability index of a GFP-peptide fusion (GPS, HEK-293T) (PSI 1-6); higher = more stable
Details: c terminus: a fixed tail appended
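Further: lentivirally expressed fusions sorted by FACS into six bins by GFP to DsRed ratio, PSI derived from sequencing read proportions per bin multiplied by bin number.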

Variant	protein stability index
NWLGRPSKVCSLQDLCCRTIVSCT [L10C]	2.04
NWLGRPSKVKSLQDLCCRTIVSCT [L10K]	2.35
NWLGRPSKVMSLQDLCCRTIVSCT [L10M]	2.56
NWLGRPSKVESLQDLCCRTIVSCT [L10E]	2.15
NWLGRPSKVFSLQDLCCRTIVSCT [L10F]	2.02
NWLGRPSKVTSLQDLCCRTIVSCT [L10T]	2.49
NWLGRPSKVVSLQDLCCRTIVSCT [L10V]	2.09
NWLGRPSKVRSLQDLCCRTIVSCT [L10R]	2.6
NWLGRPSKVGSLQDLCCRTIVSCT [L10G]	2.64
NHLGRPSKVLSLQDLCCRTIVSCT [W2H]	3.05
NYLGRPSKVLSLQDLCCRTIVSCT [W2Y]	2.68
NDLGRPSKVLSLQDLCCRTIVSCT [W2D]	3.7
NELGRPSKVLSLQDLCCRTIVSCT [W2E]	3.18
NALGRPSKVLSLQDLCCRTIVSCT [W2A]	3.05
NRLGRPSKVLSLQDLCCRTIVSCT [W2R]	3
NWLGRPSKVLDLQDLCCRTIVSCT [S11D]	1.9
NWLGRPSKVLTLQDLCCRTIVSCT [S11T]	2.6
NWLGRPSKVLLLQDLCCRTIVSCT [S11L]	1.86
NWLGRPSKVLNLQDLCCRTIVSCT [S11N]	2.22
NWLGRPSKVLHLQDLCCRTIVSCT [S11H]	1.92
NWLGRPSKVLPLQDLCCRTIVSCT [S11P]	2.14
NWLGRPSKVLWLQDLCCRTIVSCT [S11W]	1.77
NWLGRPSKVLELQDLCCRTIVSCT [S11E]	2.01
NWLGRPSKVLSLQDLCGRTIVSCT [C17G]	2.34
NWLGRPSKVLSLQDLCRRTIVSCT [C17R]	3.23

Variant	protein stability index
NWLGRPSKVLSLQDLCIRTIVSCT [C17I]	2.54
NWLGRPSKVLSLQDLCFRTIVSCT [C17F]	2.53
NWLGRPSKVLSLQDLCYRTIVSCT [C17Y]	2.22
NWLGRPSKVLSLQDLCQRTIVSCT [C17Q]	3.09
NWLGRPSKVLSLQDLCLRTIVSCT [C17L]	2.77
NWLGRPSKVLSLQDLCPRTIVSCT [C17P]	1.74
RWLGRPSKVLSLQDLCCRTIVSCT [N1R]	2.21
CWLGRPSKVLSLQDLCCRTIVSCT [N1C]	2.02
WWLGRPSKVLSLQDLCCRTIVSCT [N1W]	2.22
TWLGRPSKVLSLQDLCCRTIVSCT [N1T]	2.16
EWLGRPSKVLSLQDLCCRTIVSCT [N1E]	2.6
MWLGRPSKVLSLQDLCCRTIVSCT [N1M]	1.75
AWLGRPSKVLSLQDLCCRTIVSCT [N1A]	2.04
LWLGRPSKVLSLQDLCCRTIVSCT [N1L]	1.62
NWLGRPSKVLSLQDLCCRTIVHCT [S22H]	2.26
NWLGRPSKVLSLQDLCCRTIVNCT [S22N]	2.69
NWLGRPSKVLSLQDLCCRTIVRCT [S22R]	2.77
NWLGRPSKVLSLQDLCCRTIVPCT [S22P]	2
NWLGRPSKVLSLQDLCCRTIVVCT [S22V]	1.77
NWLGRPSKVLSLQDLCCRTIVACT [S22A]	2.23
NWLGRPSKVLSLQDLCCRTIVGCT [S22G]	2.57
NWLGRPSKVLSLQDLCCRTIVYCT [S22Y]	1.95
NWLGRPSKVLSLQDLCCRTIVSCH [T24H]	2.64
NWLGRPSKVLSLQDLCCRTIVSCY [T24Y]	2.13
NWLGRPSKVLSLQDLCCRTIVSCG [T24G]	2.6

Variant	protein stability index
NWLGRPSKVLSLQDLCCRTIVSCR [T24R]	2.89
NWLGRPSKVLSLQDLCCRTIVSCP [T24P]	3.02
NWLGRPSKVLSLQDLCCRTIVSCI [T24I]	1.58
NWLGRPSKVLSLQDLCCRTIVSCQ [T24Q]	3.19
NWLGRPSKVLSLQDLCCRTIVSCE [T24E]	2.58
NWLGRPSKVLSLQDLCCRTIVSCF [T24F]	2.63
NWLGRPSKVLSLQDLCCRTIVSCV [T24V]	2.28
NWLGRPSKVLSLQDLCCRKIVSCT [T19K]	2.69
NWLGRPSKVLSLQDLCCRLIVSCT [T19L]	2.16
NWLGRPSKVLSLQDLCCRHIVSCT [T19H]	2.41
NWLGRPSKVLSLQDLCCRSIVSCT [T19S]	2.51
NWLGRPSKVLSLQDLCCRDIVSCT [T19D]	2.64
NWLGRPSKVLSLQDLCCRVIVSCT [T19V]	2.22
NWLGRDSKVLSLQDLCCRTIVSCT [P6D]	2.48
NWLGRFSKVLSLQDLCCRTIVSCT [P6F]	2.17
NWLGRHSKVLSLQDLCCRTIVSCT [P6H]	2.21
NWLGRWSKVLSLQDLCCRTIVSCT [P6W]	2.11
NWLGRISKVLSLQDLCCRTIVSCT [P6I]	2.4
NWLGRRSKVLSLQDLCCRTIVSCT [P6R]	2.29
NWLGRPSKVLSLQDLCCWTIVSCT [R18W]	1.83
NWLGRPSKVLSLQDLCCDTIVSCT [R18D]	1.99
NWLGRPSKVLSLQDLCCATIVSCT [R18A]	2.03
NWLGRPSKVLSLQDLCCFTIVSCT [R18F]	1.87
NWLGRPSKVLSLQDLCCCTIVSCT [R18C]	2.35
NWLGRPSKVLSLQDLCCVTIVSCT [R18V]	2.39

Variant	protein stability index
NWLGRPSKVLSLQDLCCQTIVSCT [R18Q]	2.26
NWCGRPSKVLSLQDLCCRTIVSCT [L3C]	2.39
NWPGRPSKVLSLQDLCCRTIVSCT [L3P]	2.58
NWRGRPSKVLSLQDLCCRTIVSCT [L3R]	2.56
NWLGRPSKKLSLQDLCCRTIVSCT [V9K]	2.29
NWLGRPSKWLSLQDLCCRTIVSCT [V9W]	2.16
NWLGRPSKMLSLQDLCCRTIVSCT [V9M]	2.23
NWLGRPSKELSLQDLCCRTIVSCT [V9E]	2.3
NWLGRPSKCLSLQDLCCRTIVSCT [V9C]	2.07
NWLGRPSKLLSLQDLCCRTIVSCT [V9L]	2.12
NWLGRPSKVLSSQDLCCRTIVSCT [L12S]	1.73
NWLGRPSKVLSQQDLCCRTIVSCT [L12Q]	2.31
NWLGRPSKVLSRQDLCCRTIVSCT [L12R]	2.23
NWLGRPSKVLSMQDLCCRTIVSCT [L12M]	1.95
NWLGRPSKVLSTQDLCCRTIVSCT [L12T]	1.81
NWLGDPSKVLSLQDLCCRTIVSCT [R5D]	2.51
NWLGIPSKVLSLQDLCCRTIVSCT [R5I]	2.2
NWLGGPSKVLSLQDLCCRTIVSCT [R5G]	2.35
NWLGWPSKVLSLQDLCCRTIVSCT [R5W]	3.09
NWLGEPSKVLSLQDLCCRTIVSCT [R5E]	2.7
NWLGRPSKVLSLQQLCCRTIVSCT [D14Q]	2.12
NWLGRPSKVLSLQLLCCRTIVSCT [D14L]	1.67
NWLGRPSKVLSLQFLCCRTIVSCT [D14F]	2.14
NWLGRPSKVLSLQTLCCRTIVSCT [D14T]	2.11
NWLGRPSKVLSLQCLCCRTIVSCT [D14C]	1.78

Variant	protein stability index
NWLGRPSKVLSLQVLCCRTIVSCT [D14V]	1.72
NWLGRPSKVLSLQDLCCRTIVSRT [C23R]	2.92
NWLGRPSKVLSLQDLCCRTIVSGT [C23G]	3.28
NWLGRPSKVLSLQDLCCRTIVSKT [C23K]	2.92
NWLGRPSKVLSLQDLCCRTIVSLT [C23L]	2.37
NWLGRPSKVLSLQDLCCRTIVSAT [C23A]	2.74
NWLGRPSKVLSLQDLCCRTIVSDT [C23D]	3.12
NWLGRPSKVLSLQDLCCRTIVSHT [C23H]	2.69
NWLGRPSKVLSLQDLCCRTIVSWT [C23W]	2.67
NWLGRPSKVLSLQDLCCRTIVSVT [C23V]	2.21
NWLGRPSCVLSLQDLCCRTIVSCT [K8C]	2.08
NWLGRPSDVLSLQDLCCRTIVSCT [K8D]	2.1
NWLGRPSQVLSLQDLCCRTIVSCT [K8Q]	1.97
NWLGRPSLVLSLQDLCCRTIVSCT [K8L]	2
NWLGRPSTVLSLQDLCCRTIVSCT [K8T]	1.88
NWLGRPSIVLSLQDLCCRTIVSCT [K8I]	2.11
NWLGRPSHVLSLQDLCCRTIVSCT [K8H]	2.16
NWLGRPSYVLSLQDLCCRTIVSCT [K8Y]	1.96
NWLGRPSRVLSLQDLCCRTIVSCT [K8R]	2.65
NWLGRPSGVLSLQDLCCRTIVSCT [K8G]	2.01
NWLGRPSSVLSLQDLCCRTIVSCT [K8S]	2.31
NWLGRPSNVLSLQDLCCRTIVSCT [K8N]	2.52
NWLGRPSKVLSLQDLSCRTIVSCT [C16S]	2.31
NWLGRPSKVLSLQDLPCRTIVSCT [C16P]	2.02
NWLGRPSKVLSLQDLGCRTIVSCT [C16G]	1.44

Variant	protein stability index
NWLGRPSKVLSLQDLACRTIVSCT [C16A]	2.5
NWLGRPSKVLSLQDLMCRTIVSCT [C16M]	1.98
NWLGRPSKVLSLQDLICRTIVSCT [C16I]	2.17
NWLGRPSKVLSLQDLFCRTIVSCT [C16F]	2.44
NWLGRPSKVLSLQDLWCRTIVSCT [C16W]	2.79
NWLGRPSKVLSLDDLCCRTIVSCT [Q13D]	1.61
NWLGRPSKVLSLKDLCCRTIVSCT [Q13K]	2.86
NWLGRPSKVLSLFDLCCRTIVSCT [Q13F]	2.75
NWLGRPSKVLSLIDLCCRTIVSCT [Q13I]	2.93
NWLGRPSKVLSLVDLCCRTIVSCT [Q13V]	2.81
NWLGRPSKVLSLGDLCCRTIVSCT [Q13G]	2.21
NWLGRPSKVLSLRDLCCRTIVSCT [Q13R]	3.23
NWLGRPSKVLSLCDLCCRTIVSCT [Q13C]	2.42
NWLGRPSKVLSLHDLCCRTIVSCT [Q13H]	2.62
NWLGRPSKVLSLYDLCCRTIVSCT [Q13Y]	2.42
NWLGRPSKVLSLMDLCCRTIVSCT [Q13M]	2.12
NWLVRPSKVLSLQDLCCRTIVSCT [G4V]	2.56
NWLFRPSKVLSLQDLCCRTIVSCT [G4F]	2.23
NWLKRPSKVLSLQDLCCRTIVSCT [G4K]	2.48
NWLSRPSKVLSLQDLCCRTIVSCT [G4S]	2.21
NWLLRPSKVLSLQDLCCRTIVSCT [G4L]	2.29
NWLPRPSKVLSLQDLCCRTIVSCT [G4P]	2.42
NWLGRPSKVLSLQDLCCRTIQSCT [V21Q]	2.8
NWLGRPSKVLSLQDLCCRTIASCT [V21A]	2.64
NWLGRPSKVLSLQDLCCRTIKSCT [V21K]	2.55

Variant	protein stability index
NWLGRPSKVLSLQDLCCRTIHSCT [V21H]	2.44
NWLGRPSKVLSLQDVCCRTIVSCT [L15V]	1.72
NWLGRPSKVLSLQDFCCRTIVSCT [L15F]	1.45
NWLGRPSKVLSLQDYCCRTIVSCT [L15Y]	2.15
NWLGRPSKVLSLQDNCCRTIVSCT [L15N]	2.18
NWLGRPSKVLSLQDRCCRTIVSCT [L15R]	2.51
NWLGRPCKVLSLQDLCCRTIVSCT [S7C]	2.21
NWLGRPVKVLSLQDLCCRTIVSCT [S7V]	2.22
NWLGRPPKVLSLQDLCCRTIVSCT [S7P]	2.27
NWLGRPKKVLSLQDLCCRTIVSCT [S7K]	2.59
NWLGRPFKVLSLQDLCCRTIVSCT [S7F]	2.28
NWLGRPIKVLSLQDLCCRTIVSCT [S7I]	2.25
NWLGRPHKVLSLQDLCCRTIVSCT [S7H]	1.96
NWLGRPQKVLSLQDLCCRTIVSCT [S7Q]	2.47
NWLGRPRKVLSLQDLCCRTIVSCT [S7R]	2.02
NWLGRPSKVLSLQDLCCRTNVSCT [I20N]	1.91
NWLGRPSKVLSLQDLCCRTAVSCT [I20A]	1.94
NWLGRPSKVLSLQDLCCRTSVSCT [I20S]	2.08
NWLGRPSKVLSLQDLCCRTPVSCT [I20P]	2.42
NWLGRPSKVLSLQDLCCRTCVSCT [I20C]	2.32

Variants of: B2
Test: as above
Details: c terminus: a fixed tail appended

Variant	protein stability index
MAGCRGSLCCCCRWCCCCGEREYR [T23Y]	1.79
MAGCRGSLCCCCRWCCCCGEREWR [T23W]	2.78
MAGCRGSLCCCCRWCCCCGERETH [R24H]	2.55
MAGCRGSLCCCCRWCCCCGERETT [R24T]	2.71
MAGCRGSLCCCCRWCCCCGERETS [R24S]	2.57
MAGCRGSLCCCCRWCCCCGERETF [R24F]	1.79
MAGCRGSLCCCCRWCCCCGERETI [R24I]	1.87
MAGCRGSLCCCCRWCCCCGERETN [R24N]	2.74
MAGCRGSLCCCCRWCCCCGERETQ [R24Q]	2.54
MAGCRGSLCCCCRWCCCCGERETK [R24K]	2.78
MAGCRGSLCCCCRWCCCCGERETE [R24E]	2.95
MAGCRGSLCCCCRWCCCCGERETM [R24M]	1.91
MAGCRGSLCCCCRWCCCCGERETL [R24L]	2.73
MAGCRGSLCCCCRWCCCCGERETC [R24C]	3.05
MAGCRGSLCCCCRWCCCCGERETY [R24Y]	2.44
MAGCRGSLCCCCRWCCCCGERETP [R24P]	2.38
MAGCRGSLCCCCRWCCCCGERETG [R24G]	2.44
MAGCRGSLCCCCRWCCCCGERETD [R24D]	2.79
